According to the supplement of paper PMC12455559:

Assay: purified protein yield per well (BCA); higher = higher soluble expression
Protocol: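 Candidate PET hydrolases were expressed in E. coli C41(DE3) in 2 mL autoinduction cultures in 24-deep-well plates, Ni-bead purified and released by SUMO protease cleavage on an OT-2 robot. Yield per well was measured by BCA; values below 25 ug (0.1 mg/mL) are below the detection threshold. Melting temperature was measured by differential scanning fluorimetry with Sypro Orange, ramping from 25 C at 0.3 C/step.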

Sequence	purified protein yield per well [µg]
AGEQEYRRGPDPTLASLQAQEGPFAYATVTVPDQATYDGGTIYYPTDTSQGTFGAIAISPGYTGYQNSIAWYGRLLASNGFVVFTIDVENTNYDQPNARGEQLLDALDYLTQTSSVRSRIDPNRLAVAGHSMGGGGALRASYLRPSLQASIPLTPYHTWKNWSWVTVPTMIFGAENDTVTEVEDHAEPFYNTLTSAQERFYIELNAPADHLTPTSYDPTIGQYPRAFAKRYIDTDTRYEQFLCPPPAPSSAVEESRRACLGS [DP031]	< 25
CASVASPPAATLAALSGNGSYEVMTYTDFPDVPEFGDATIYYPQDAPAPVGGVAIAPGFTEVQSHISWWGPRLASHGFAVLVLDTNDRRDRPDLRADALIAAVTLLRAENSRSGSPLNSRIDVGKMAIMGHSMGGGGVLLAANEHSDQIQAAIPFTPWVPDVEFGNITVPTLVIAGSADRIANVTDHAWRHF [TEP113]	< 25
CTWRGPNPPPATLDAPMGPFTTTSSVVTTSPGFGDGTMYYPDTEPGPFGVVAVAPGWLASQNSLDTLGNRIASHGFVVITIDVNRPRSDGPQSRADQLLAALDQVANEAAVAGIADNTRQAVMGHSMGGGGALYASIDRPALKASIPLAPWARGADFSAVTVPTMIIGCEDDTVAPVGSHAIAFYDAIANTVPKAYAEIADASHSCVNDFNTDPLETAEVASSAVSFLKRFVDNDSRYTPFLCPIPELDPPLSDRRATCPYN [TEP148]	< 25
FPAVVLAVSKQPHTDTRALTDEIKTALREIEPSLPAEITVNAELFQMKRFIDTGVWNVGEALAIGAVVVQPTGAGAQTGEFRKGPDPTEASVRASSGTFTTTTASVSSLVAGFGGGTIHYPTDTSQGTYGAIAFAPGFTASSASYSWIGPRIASQGFVVFLINTDSRYDFPASRATQLQNALNYLVNSSVAASRIDLNRLAVG [TEP030]	< 25
RPAESGASAAAVQATGTQRGPDPTIAMIEATRGPFATAQVSAPSGNGFGGGVVYYPTDTTQGTWGALAIVPGYSALCSTEEAWMGPWLSSFGFVVICTETNTRTDSDSQRAAELQAALTWLTTQSPVKSEVDPARLSVLGHSAGGAGAMEEAEQHPELRAAIGLAPGFPGQGLTLATDTVPTLIVGGQNDGTVTPSYLSNLYGTLPASTQSDFAQIAGADHVYYTHANNIEMKLIIPWLKVFVDSDTRYTQFLCPTLPDPSTISAYQPKCPYVPSGGSTPPPPTSVAIVGTGSGRCVTVPGGTQTGGTQVQLADCAGGTSQQWTNTATGQLQVFGTSCLDANARGTSPGTKVIIWSCNGQQNQQWTVHADGSITGVQSGLCLDATGAGTANGTPLELWTCNGGSNQKWTLQ [TEP132]	< 25
MPGDALTDPWQNGRSDDGERGDTRRLHHIVRPVDLGGLSTEAEGHPLVLGFASDAGVRRNRGRPGAAEGPAAIRRMLSNLAAHELQTLLDAGDITCEGEALEAAQQACALALAKALSLGAFPVLLGGGHEIAVASFMGLRRYLDDQGDAGKVLVLNIDAHLDLRTSRPPSSGTPFDEIARYCEAHGHAWRYACIGVSKPSNTAALFARADEIGQAPTATNIYGNGSFSVASSSISPLVSGFGGGVVYYPTAPGLYPVVAVSPGFTATWSSISWIGPRLASWGFVVVGIETNTLLDQPSSRGQQLLAALNWAVSSSAPSAVRSRADGTRRGVAGHSMGGGGSLEALAMDTTGNVKAAVPIAPWNTDKTWNNVNEPVLIVGGQWDTVAPVATHSIPFYNTLAGPKAYVELNNATHFFPQFDDAMTSRALVAWFKRWLNNDTRFTPFTCGFSGLSISDFRSNAC [TEP180]	< 25
MAAGGLVAAQAAGAQAAPAQAAAANPYERGPAPTEASIEAARGSYAVSQTTVSSLSVSGFGGGTVYYPTSTSDGTFGAVVISPGYTAYQSSIAWLGPRLASQGFVVFTIDTLTTLDQPDSRGRQLLAALDYLTQSSSVRTRIDSSRLGVMGHSMGGGGTLEAAKSRPSLQAAIPLTGWNLDKTWPEIKTPTLIVGADGDTIAPVATHSEPFYESLPSSLDKAYLELNGATHFTPNSSNTTIAKYSISWLKRFIDNDTRYEQFLCPLPRPSLTIDEYRGNCPHTS [TEP052]	< 25
APAHHAAPAHAAAHHHAPFAVRATVVPKTAVKAFGGGVIYTPQDTGKPVLGAVVITPGFTNTNADEKQLGELVASQGFVAFVIDTLDTGDLPDQRATEILAAADYLTGQSAVRSEVSAKDVGLIGYSFGGGGTMQAAQARPSIKAAIGLMPFDFPPASDPDAQYPAYPKLTTPTLVITGQKDDVADPADFGKPAYDSIPAGTPKQYLELKGLDHYAGEHAPVAAIRNAVTAFLKRYLDGNSAYAKFICPAPKVGGPITASYSSCPKG [ESM112]	< 25
MASVAAQYGPFATAQITVPPGNGFNGGFIYYPTDTSHTYGAVAIVPGYTALFANEEAWMGPRLASFGFVVIGVETNNRNDYDTARGTQLLAALDYLTNSSAVRDRVDRNRLSVIGHSMGGGGALYAATQRPSLKAAIGLAPFKPSGNLASDNVPTMIIGGINDTTVTPSYLDGLYPTLPASTPGAYIQLANADHLYFTRPNDIELRSQIEWLKIFVDNDTRYTQFLCPSIKDTTGIVRSSVKCSTIPSGGSTPPSSPSVPPSSPPSGPQRILGSQSGRCVDVPNATHDNGTRVQLYDCNGQANQQWTYTSSKQLTVYGNVCLDAAGSGNGSAVQIYSCNGQPNQQWNVNANGTITGVQSGRCLDVWGTGNGQQFQLWDCNGQANQRFGLS [ESM074]	< 25
ADNPYQRGPDPTVASVAATRGTFATAQLTVPAGNGFGGGYIYYPTDTGHGTWGAVAIVPGYSALFADEEAWMGPWLASFGFVVIGVETITRSDGADARATELLAALDYLTQRSAVRDRVDPTRLAVMGHSAGGAGTILAAERRPSLKAAVGLAPGTPGTLSLATDKVPMMVIGGQTDPTVTPAYLDNLYAGMPTTTPSDFVQIAGADHLFFTRANNTEMKVLIPWLKIFLDNDTRYTQFLCPSLADPSGISLYRSKCPYLPPGTTSPSPPSPSPSSPSQSVSPSTPVTGCTAGYRTVGSWPGGFQGEVTVTAGSAAISGWTVGWTLGSGQTITQLWNGALTTSGSAVTVRNASYSGSVPAGGSVVFGFLANGTPSAPVLACASR [ESM027]	< 25
SGGSSPDGPRESRQDGPSSAGPSYPSAGPLEGPYEVRTQTVGPDDVGGRFRGGTVYYPADGSRDYGVIAASPGLGADQSMVQAYGALLASHGFVLITFDTKTPQDSPAQRGRQMLDALDWAAEHSAAAGRADPDRLGVMGHSMGGGAALHAASRDPRIKAAVPLTPYAGKRDWSGVTAATLVVSGSDDEVAPPSGHARAFYDGLDDAKEKAYLELKGDHFVATPPDRLVSRQTVAWFKHFVGGDKAAGEDLCPAPREERVVASRDTCPYG [TEP134]	< 25
MREHEDAMSGGRMPSGARPPRLIGLAVAAIAAVVTMIAAMLAVGPVSAQPAPTAVTPHSTQRGPDPTLAMIEASRGPFATAQQGVAPGNGFNGGEIYYPTDTSQGTWGALVIIPGYTARCVNQPAPEEAWMGPWLSSFGFVVLCMETNSPNDFDTARGQEALAALNWLTTASPVRGEVDPNRLSVMGHSMGGGGVVYAVEHQPSLRAGIGLAPFSPSQNMAGDKVPTLILGGQNDSTVTPSYLSGLYATMPAATQSAFAQIAGAGHGFYTSPNNVMMKLAIPWLKVFVDSDNRYEQFLCPTLPDPSQISIYRSKCPYVPPGGGPTSTTTTPPPPAGACQAVYQPQNSWPGGFQGLVTVTAGSSPVSGWTVTWALSGGQAITQLWSGNLTTSGSAVTVKNASYNGSLAAGASATFGFTATGAASTPTLTCTSP [ESM146]	< 25
FNPGSGGGSGGANTCETNCGFERGPDPTLSGLRSGTGPYSVSTVDVPYGSAGFGGGTIHYPTNTSGGKMGAIAVIPGFVSPESSIGWWGPALASQGFVVLTMGTQTPLDSPSARARQLTAGLDHLVEQSNSSSSAISGLVDPSRVAMVGWSMGGGGTLKNAAGDRLSAAIPLAPFDMDMSSYKNIETPTMILGCESDIIAAADLFAVPSYEHIPESTDKAYFEFAGQGHWCANGNNDNNELLSILGVSWMKRYLDKDTRYDQFLCGTNHSSNSAFSQVRDTCN [DP064]	< 25
GPYQVAYYSSYPPVPEFSAATIYFPANKGEDFAGVAISPGFVESQENMSWWGRHLASHGFAVLTLDTNELRDNPSLRADALMAAIEVLRNEGDRMGSTLRGKILKDRMAIMGHSMGGGGTLIAANAHSADLKAAIPFTPWQPDGDFSTISIPTLVIAGENDRIAVMDIHGASLSTIHHEGDEGV [TEP125]	< 25
LTLDDLKKDGPYAISAQTIPASGFGKGTVYSPNTPGKYALVAVCPGFVSAESSITEISKRLATHGFVVVTIGTKTLLDFPSSRASQLLAALKAASAVTTGPAAGKIDVTRQVVAGWSMGGGGTLEAAAATPGLKAAVAYAPWNLSSSKYKSITVPSAIIGGTADSVAPVSSHSQPFYNAIPATTPKLLGVIQGADHFFPNKAAEPASYTNIAWVKRFADGDTQYGVFLRGQDAAWASFVSTGPF [ESM117]	< 25
IYTMVDTLSLHDALPISQYRKIPDSKYHLFIKRFYKGFLNLSLWEVRYMSNRLFRARRTVFSVLILFAFMISFVAAIPGVSYASPPIVRYDYAPGKYSGNGPYSYSTYQLPGWSHGATVYYPTNASAPFSGIVFCPPYTGTQIMFRDWGPFFASHGIVLVTMDTSSILISVDERAVEQRTVLNLLKAENSRSGSPLYQKLDTDRVGAMGWSMGGGATWINSAEYPGLKTAMSLAGHNLTAININSKGFGTQCPTIIFCGALDTTYLGGMLQSETVYYNIPSGVPKVYYEVGTAGHFVWGGPTDANDHVAELALAFQKTFLDGDDRWEGFIEKPRFDYLSTFRSRN [TEP185]	< 25
APQAPENPYQRGPAPTEQSIVADRGSFEVERISVGSWSGPGFNKGTIYAPKDRSQGTFGAIAVSPGFVSPEYLISWYGERLASRGFVVMTIETTTLYDQPAQRGDQLLAALDYVVSDDSPVRDRVDPNRLAVMGHSMGGGGTLHAVKERKSLKAAVPLMPWNLFTDWGDVQTPTMIIGAQNDLIASVGLHSEPFYNSLRSAREKAYLEMDGAGHLVANSPNDTIAKYTIAWMKRYVDNDTRYEQFLCPAPSRDRNISEYRDTCPGS [DP015]	< 25
QTSPDCSAITISSSTNTGVNLVSTYLESDGIRNGTDYYGSTIYYPQNTTSILASIIIVPGYLNFESSMQNWGPFLASHGIVCMTIGTNNIFDLVNDRKEALQDALISLKAENTRVNSPLFNKLNTSRVALAGWSMGGGGAQLAAVEDSTIKAIIALCPWIDPMQISVNSLIHDVPVLFFSGQFDAVAPSSTHANIHYNYTPSTTDKLIYEISSGGHTVANVPSGGQGEVGRMALSWLKKYLIEDYCYCPLLLDTPLTASIYQTNVTCSTYGCTDSIALNYDPLATTDDGTCIYCVYGCTDSTSVNYAPLAICDDGTCIASVYGCTNATACNYYAGANINDGSCEWTSCNPTSCGASAITGLGVTNVIHDRVTLTFDNMNTYDTSGAQICRVDQLRIKYREVGTSSWSQKNMAAPTGYDPTTGICNSTQNTDKLVLGLSGSTTYEWEMRVWYCVTGATAWVVGPDFTTADNCPNIGSFTAYGSNPIRATFDWDDSNGSYEFVRIKMRVDSISNPQGTDWFQVGGFGVTYGTFTKDKNGLVAGETYRAQARTWCDPNGGAYNSLSWTALATW [TEP033]	< 25
